Experimental data reported in the supplement of paper PMC12636428.

test system: Saccharomyces cerevisiae; assay: transcriptional activation domain activity (GFP:mCherry ratio, weighted mean of sorted bins, harmonized to initial dataset scale) (arbitrary fluorescence ratio units); higher = stronger transcriptional activation; settings: beta-estradiol 1 µM; induction time 4 h
Summary of the method: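 In diploid yeast carrying a GFP reporter, barcoded protein tiles fused to an estradiol-inducible synthetic transcription factor were integrated at the URA3 locus. Cultures diluted 1:5 into SC with 1 uM beta-estradiol were kept at 30 °C for 4 hours, then sorted by GFP:mCherry ratio into 8 bins before barcode sequencing. Tiles with under 50 reads were excluded. The activation activity reported here is the read-weighted mean of bin median fluorescence, averaged across barcodes and linearly rescaled to the initial dataset.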

Sequence | transcriptional activation domain activity
CFSKCLDGHTLLLCTLYFLIINQKLLYCYVIVFFFWIWLSISLSYICVSELYY | 57100
TLRQELPNFFIFGLNNTSIYSSNILLWEPRYTGLQIRGKWSYLMLAATIRWSL | 54000
SLLQHLAEYFICFDSVVSFLLTLVVNVFRLTSFGIIRLVGWRPVVFFFFPSIY | 50900
MSENTAVENVTATLEKTKLEAPVTNEAEVAHAASAAEGRRLYIGNLAYSTTEE | 33100
IMLVLNWLAVHGLFLVKKKSEKSVYHALHKMPTPPFSDSLRQQCRDRLLACLA | 36700
SLSTFVYTFLRFHFYFFAFFLVALTFSFFLLFCSLFVCPVGIIFLYFFIFFVL | 52100
EQWECTKLVLFSHFTIELPIIWLFHPVAEALGMTTYQVPFPSLQKMAIQIFLF | 39400
MGFFFVFYLLLSHCCFSLWVRGFGFFLSHPVFLFYILGGFCLVCFFPFFFPIN | 48900
NFFSCLSFLFLFIFLFIFLLFHFPYLFSFQFCLLPIFSHFSIDHQKPYPFPSF | 37700
ENNNYAVDLAKSNGMHIVGIQGSDIVDGRKTLVLGLVWQLMRLSIYKTLSSLT | 41900
IIQCLVLGKYTKCAPRTIETLLLYLHLKYNQHEDNQMEIWVLLGVIVRLALRM | 44700
ATPAPAPGMSAAPAPAAEPVESTPKAESKPEPKPEPKAEPKAESKPAAKPAAA | 19500
KPDLYLDILKIIAYSLDDVKFRACQVLFHYYFVSLGHVVVAEALPKLGVTVEI | 36400
VHVNDMVGFKFMSDKHEIFSKVLLTDVLKGTLAHQWLGYNVLFSNGSEWHFFR | 59100
GIYAFGKMYFIPYLLSNHWVVMLTYLQHSDPTIPVYRRGQWSFVRGALSTIDR | 41800
MWLVKCTYILYIYIFGKWKVREVLELTRVFFFFFSFFFFLFFFPFFFFFFFFF | 59900
MLSSWSTSLNLVFFSLTWTTIAMTYSPLQLEFFAPLLLRTFLYLLPSALFLLF | 67600
VLTLTFNDGKKHEDLSKQLLFVIHDIFSCDQNSPGYVLLRLLRSFLVLDVYMS | 65000
MGSNANKRREDGPKKEQLQKRVLHIRSVARSTKGGKIRSSSAIVVVGNGNGVG | 42400
GATSTDHQHHHHRIQFHSHKPNRNNIVNNSGISAANTTADLTNNDLNDLISRE | 31400
VDLSDLGEAVINQSNHNNDNDNSNNGDGNNNNTISELVCFDESIADLYPVEID | 71500

Sequence | transcriptional activation domain activity
GPFQSSAQVDGTLDGDLLQELLIAFLSRKKRFVVWKVMKVLFATLLKRMGAHD | 55600
ADAGGKDKGEKVAGDAEGAPAEGKAEVKGEARAETAVEGAEQQSNGKKRKAAS | 34200
KGKQRSEGGGGNRKGGRPPRRIDEDAADSSSNDAGAEGGAKGSEPTKAAKAAS | 33400
MHFAVKVKMQFFFFPSLSFFSSVVFISPPPPFVFLWHMGFLACLLFRSLVVFF | 57000
SEDERPRGGLKGRKGKKRVEREETSGGSDESSDEEGKRGKAKAGGKREVRTRS | 31900
LGLLLVVSVRIVVTLFSLFFFILLLVALGLIILIIALIVKAIIIVVYFFFFFV | 20400
RQYRKRKAPAPAEGEENGEVAPAAPKPKRQRKKKPAPEEGAENTDGTAAAPKP | 47000
HHLHAFLLGLGFLFSLLICVSSSCLVSSSLLRLLLLLPRFARWIRFLLYILLL | 64400
TRMLLHWFHCQDNVWYYYVAFFFAELLVYTVMIVSIGSILFQWRFFCRVAYKM | 32000
EETKPAESAKETKPVANRPAQKKPEKRKKEEQEGQEVVEKETSKKRAKKDKKS | 39200
MITVALYIIGRGFFSFFFIFCHFTILVFLFLAAYFFLFFSCPFLLLFYFFWFT | 54200
RDNSFLHALIHRFHEVHIVAWCIEKVNFMYLHPGVPFYVLCDCTRGPAIMVLH | 51300
FHYGGRADVTSVFTVEARTSLTVDDFRKRILLAWANLRLHHVLLMSTVLRDSA | 65000
AAPVKKEEPKKEETPKAAEETATAPVAETPAVAAAAATEAPKEEAKEEPKRRS | 35400
VAAFAVFCSIEARGSLYVFSVDAVKRVGRRIKHFWHGVWTVLRTAVLLCTCGR | 77400
GGEDALGRAAEEEGVRSGGLSSEQQDREEARGEARDRQHRVACFGGRRECAGG | 48500
HWSYYRNGNMIINFFYKEIINIGYLFWFQIYCAWSTAQAIDYVYLLFWNAFWT | 77100
RLMKKKKKSSLVFVFNHFRPVYVFLFFFSLYFFPFLSTPYFFPSFFFLFLFWV | 49900
AVAPASTPVATEASPAGAPDAKGKKKEKAAAGANADAAGGKKGKGGAQAAPAT | 49500
YQVYYYYQHFRNDAFGMQCLVYGASLINLLHSILLPKCVYFWVSTYWGNLSAL | 60400
PLLLKGLQFTMAEEKTWSLLRQIMLLDNLPLIDPAPTRFMYLLLGAIPRLLNG | 49700

Sequence | transcriptional activation domain activity
MLFARLHPVADETLIPFFCFWPSRLFVVLLVSFLHLIILFLSCFFFNCFLLFF | 50300
KDEVMKIMPVQKQTRAGQRTRFKAFVVIGDSDGHVGLGVKCAKEVATAIRGAI | 61200
DREAKEDGGDTGGGGGRDRGGEEEEDEEEEEEEEEDDGFIKKTKKDKKKKKKK | 36100
MILVQLYIYHHFLNYRCLLHVILFRLKLILPSSSLIFVLGSVESSGNHGTSYD | 49200
EFNDIERSVYEIVRKRFIARINSFAAAGQLEKSYTNIFVMLLRLRQLTGHILT | 48200
MLVLILTLYYFSNYLKSTHQLLSMNLLSSDDLCGILVRDNIIFSILFTFPKIL | 63200
YNGYHKVGEHYLLCKAVVDHKKKSSIHVHLIEVQPTVFNILEGLLYPKILFSS | 53500
EGEEDKPKAARGRKRKADADAEEPPAKKTKPASKAAPGSKPASKAAASKPASK | 25400
MFLKSELHFNEPLQHILISFIFLSCLSNLALMIFSVVYKVYILLALIMLVYAN | 51900
MATDATVNAPASAEATTARRRRSHQKSRLGCRNCKLRRVKCDERRPRCVKCRE | 35500
IQSGDEGKDRKGREKVEDRSKRSRRRSRSRSKDRSRGKRRRDDHEGTKGGGQA | 41100
TYIPCDPLLTIVGGNVPFSSLGLRAFSLAMYSLLVIPGLNLVLPFLFFLLLHL | 92200
ERKRERREKKEKEREREQREEREKSKERSGKKNGKDSEKRRERRGEKGSEERR | 32800
MGKGGYGEQRGGGRGGFRGGRGGGRGGFGGGGFNQGPPSEVVVVGTFVSACEG | 58400
FGFVFFVASLENGHYKFQFTNFAWTHMALYLIVCQAHFVMNNIFEGMIWFFLP | 66100
RDEAGGGARRESKKAGARRGRTAEKRGGRGHEGRRQEGGKATKAEGGAEGEGE | 46500
MIPFQTGQVMGMLNRIDRLPLKEILTYAMPYLLEKTNVSMIIRQYLWSTLGNH | 44100
SWLRGYEVFKLQVSSTMIKCLRGMLCFIPVVCLGPNIVLLLGLPIQTQVKWFL | 61100
MWLVVCIDGPVLSVLPRTILYLCVLLLLTLLASCSERSFAFARPLSSSCIFSY | 42600
PSTSPTPSSACAPSAASSTRSPPSTPARGGATSGTCCASACAASTPCVTRYTG | 11500
AGLIVLSGRFNGVVRCLREGFRLRTNIDKCMIFYISCKIALISLFTLLLLVEG | 46100

Sequence | transcriptional activation domain activity
VVVKVALLLRWLVMVYDVLDGHTMLSQLYGLLFNCLDMISLRTHICHLLSLLT | 27000
RSSSGKDRDRERDGGRDRNGKSSSSSRRREKERDEDSGDERRKSSSSSRRRRD | 44400
IVRIVFFPTIFSFFNFFAVWFYQRSWILLPFPELYECFALVAMFYLLVVYVTP | 46200
MLNLHQSCLLLCSLLIITGLGLASTIFIPVNPFYQLLLMENSAFPWIHFVIYC | 38500
RSKSSDESSSDSDSDSGSESGSDSDTSRRKRSKSKSSSRSKSKSKSSKLRARS | 10600
MVPPRRESAATGASQRAAIACQSCRLRKVKCDAESAASDQGCTPCRRARQECV | 26600
MCNVALSLAWFIFPPFLHGILPFSTCLLLVFFLSLSSSFFSLITHLLLHCYLF | 34900
DLIQTKQLQNALLTHPRRNTLTGLQFTMQNVLDLLKYILTMILYRPSQFRWAA | 82500
SDSQKSGKIWGLCCTDSFGCLDLIIGLDLSDVLLVIQWRSTCDMCTLWQRLGH | 53500
VQRLHALEKHEYDVCTNLEACLRFGLWAQRGVLSLWHLDLLNGTWMTCLSGVK | 39600
EAQAEEEVAPAPKPRGRPRRAAAEAPAPEISKPTTRGRAKKVEAPAEDVIVVE | 24100
VVSFFVILGYMLLYRMRSTQLWSNRSTSSFGERPKPPIVAYRSIIIRIGLRKL | 67300
PDISAYDDERLKEGRLIAEFILNRTQYAPDETSKNDRVSDSEVPWMDFPSELN | 37600
ALSTADGGRVPAKRARKAINCGPCRLSKLKCDRERPCSSCKLRGTTASCYQGQ | 34000
TTLTEKGSQVMEKNMDQLDSVHNLNDDDLQQLLEDLGNIDHSDEKLWKEITDQ | 93200
ICYVSLCVVISMCDLLVLWRCWVIWTALDHHLAYLVTFVPVIMLLSSFVMGTF | 44100
EPKAEEPAPRKSDEGQGKDKEQPKEIKEEEQQRGRRPDKGKARVVVQGFAAEE | 23200
ITLYPPNPYTNEPVPIRPISYLHLSGLLNMYVIRRLRRENWIRIFFRILFPFF | 26700
VPLHISLPSLVIDVRVIGEPGLYFADLGCCYCLDAELQITHIHGLFLHVVFIL | 56600
PGEVSEAEANGDAPKAEAAVAPDSDEAAKPKKKKKARKPKAAKKGEDGEPAAA | 17100
